# Results as given in the nanobody polyreactivity screen of Harvey et al. (2022).
# Experiment: yeast display, Sf9 membrane polyspecificity reagent, FACS + sequencing; frameworks hold sequencing errors
# Procedure, shortened: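 In a synthetic yeast display library (Saccharomyces cerevisiae BJ5465), nanobody expression was induced with galactose for 36–48 hours. FACS gates were set low and high (top ~1%) using anti-HA fluorescence for expression and streptavidin fluorescence for binding of the Sf9 membrane reagent. Each polyreactivity label is drawn from the gate of origin.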
row,Sequence,polyreactivity (PSR sort gate)
1,QVQLVESGGGLVQAGGSLRLSCAASGFTFSRYAMGWYRQAPGKERELVAAITSGGSTYYADSVKGRFTISRDNAMNTVYLQMNSLKPEDTAVYYCAVGVAEFFGYGYWGQGTQVTVSS,high polyreactivity
2,QVQLVESGGGLVQAGGSLRLSCAASGFTFSRYAMGWYRQAPGKERELVAVITWNGGRTYYADSVKGRFTISRDNAKNTVYLLMNSLKPEDTAVYYCKAYYFFLPYRYSTYDYWGQGTQVTVSS,high polyreactivity
3,QVQLVESGGGLVQAGGSLRLSCAASGFTFSRYTMGWYRQAPGKERELVAAITSSGGSTYYADSVKGRFTISRDNAKNTVYLQMNSLKPEDTAVYYCAARRRESDQRGYCGQGTQVTVSS,high polyreactivity
4,QVQLVESGGGLVQAGGSLRLSCAASGFTFSSYAMGWYRQAPGKERELVAAISYSGGSTYYADSVKGRFTISRDNAKNTVYLQMNSLKPEDTAVYYCAAQRGSEYYWGQGTQVTVSS,high polyreactivity
5,QVQLVESGGGLVQAGGSLRLSCAASGFTFSSYAMGWYRQAPGKERELVAAITISGGRTYYSDSVKGRFTISRDNAKNTVYLQMNSLKPEDTAVYYCNTDYGRRYDYWGQGTQVTVSS,high polyreactivity
6,QVQLVESGGGLVQAGGSLRLSCAASGFTFSTNAMGWYRPAPGKERELVAAISYGGVSTYYADSVKGRFTISRDNAKNTVYLQMNSLKPEDTAVYYCAAGRITTRLYGDPFDYWGQGTQVTVSS,low polyreactivity
7,QVQLVESGGGLVQAGGSLRLSCAASGFTFSTNAMGWYRPAPGKEREVVAAITWRGGSTYYADSVKGRFTISRDNAKNTVYLQMNSLKPEDTAVYYCARRYRGSHVSYYKKFDYWGQGTQVTVSS,low polyreactivity
8,QVQLVESGGGLVQAGGSLRLSCAASGFTFSTNAMGWYRQAPGKERELVAAISCTGGSTYYADSVKGRFTISRDNAKNTVYLQMNSLKPEDTAVYYCATKFFNPGMYFWGQGTQVTVSS,high polyreactivity
9,QVQLVESGGGLVQAGGSLRLSCAASGFTFSTYAMGWYRQAPGKERECVAAISSGGTTNYADSVKGRFTISRDNAKNTVYLQMNSLKPEDSAVYYCAADWYRYYEYGAYGYWGQGTQVTLSS,low polyreactivity
10,QVQLVESGGGLVQAGGSLRLSCAASGFTFSTYAMGWYRQAPGKERELVAAISFSGGSTYYADSVKGRFTISRDNAMNSVYLQMNRLKPEDTAVYYCARAYTKYFEIYFIYALLYGHWGQGTQVTVSS,low polyreactivity
11,QVQLVESGGGLVQAGGSLRLSCAASGFTFSVNAMGRYRQAPGKERELVAAISSRGSITYYADSVKGRFTISRDNAKNTVYLQMNSLKPEDPAVYYCNAYKYKSPGDYWGQGTQVTVSS,high polyreactivity
12,QVQLVESGGGLVQAGGSLRLSCAASGFTFSVYAMGWYRQAPGKERELVAAINWSGSTTYYADSVKGRFTISRDNAKNTVYLQMNSLKPEDTAVYYCAVEGRTTWPFRTYGYWGQGTQVTVSS,high polyreactivity
13,QVQLVESGGGLVQAGGSLRLSCAASGFTFSVYAMGWYRQAPGKERELVAAISDSGGRTYYADSVKGRFTISRDNEKNTVYLQMNSLKPEDSAVYYWKARPAGRGYNYWGQGTQVTVSS,high polyreactivity
14,QVQLVESGGGLVQAGGSLRLSCAASGFTFSVYAMGWYRQAPGKERELVAAISRGGGGTYYADSVKGRFTISRDNAKNTVYLQMNSLKPEDTAVYYCNAAGYPQYKGYDYWGQGTQVTVSS,high polyreactivity
15,QVQLVESGGGLVQAGGSLRLSCAASGFTFSVYAMGWYRQAPGKERELVADIDWSGGSTYYADSVKGRFTISRDNAKNTVYLQMNSLNPEDTAVYYCAADYYYPDSYVQGTSGEYWGQGTQVTVSS,low polyreactivity
16,QVQLVESGGGLVQAGGSLRLSCAASGFTFSWYALGWYRQAPGKESELVAAINWSGTSTYYADSVKGRFTISRDNAKNTVYLQMNSLKPEDTAVYYCNVVVYRWSPVSKLDYWGQGTQVTVSS,high polyreactivity
17,QVQLVESGGGLVQAGGSLRLSCAASGFTFSWYAMGWYRQAPGKERELVAAINADGGTTYYADSVKGRFTISRDNAKNTVYLQMHSLKPEDTAVYYFAAELSVDKYDYWGQGTQVSVSS,low polyreactivity
18,QVQLVESGGGLVQAGGSLRLSCAASGFTFSWYAMGWYRQAPGKERELVAAISLSGDRTYYADSVKGRFTISRDNAKNSVYLQMNSLKPDDTAVYYCVFAFEYFYWGQGTQVTVSS,low polyreactivity
19,QVQLVESGGGLVQAGGSLRLSCAASGFTFSYNAMGWSRQAPGKERELVAAISSAGSTYYADSVKGRFTISRDNAKNTVYLQMNSLKPEDTAVYYCNAYRRSYRWYGDLGEYWGQGTQVTVSS,high polyreactivity
20,QVQLVESGGGLVQAGGSLRLSCAASGFTFSYNAMGWYRQAPGKERELVAAIDWGGGSTYSYSVKGRFTISRDNAKNTVYLQMNSLKPEDTAVYYCAAYIPSSGRNPEIGVEYDYWGQGTQVTVSS,low polyreactivity
21,QVQLVESGGGLVQAGGSLRLSCAASGFTFSYNAMGWYRQAPGKERELVAAISSTGTSTYYADSVKGRFTISRDNAKNTVYLQMNSLKPEDTAVYYCNAYGYDGYYAGRHGYWGQGTQVTVSS,low polyreactivity
22,QVQLVESGGGLVQAGGSLRLSCAASGFTFSYYAMGWSRPEPGKERELVAAISSSASRTYYAESVKGRFTISRDNAKNTVYFQMNSLKPEDTAVYYCAARYSESRTRHLDYWGQGTQVTVSS,high polyreactivity

row,Sequence,polyreactivity (PSR sort gate)
1,QVQLVESGGGLVQAGGSLRLSCAASGFTFSYYAMGWYRQAPGKERELVAAISSGGSTNYADSVKGRFTISRDNAKNTVYLQMNSLKPEVTAVYYCNVRLYYPTYASMEYWGQGTQVTVSS,low polyreactivity
2,QVQLVESGGGLVQAGGSLRLSCAASGFTFSYYAMGWYRQAPGKERELVASISRSGNTYYADSVKGRFTISRDNAKNTVYLQMNSLKPEDTAVYYCNARRHYRRYSYRHNYWGQGTQVTVSS,high polyreactivity
3,QVQLVESGGGLVQAGGSLRLSCAASGFTFTAYAMGWYRQAPGKERELVAAINWSGSRTYYADSVKGRFTISRDNAKNTVYLQMNSLIPEDSAVYYCNTATSKSSYRHYDYWGQGTQVTVSS,high polyreactivity
4,QVQLVESGGGLVQAGGSLRLSCAASGFTFTGNAMGWYRQAPGKERELVAAITSGTSTYYADSVKGRFTISRDNAKNTVYLQMNSLKPEDTAVYYCAKEYPLDGRGSDYCGQGTQVTVSS,low polyreactivity
5,QVQLVESGGGLVQAGGSLRLSCAASGFTFTKYDMGWYRQAPGKETELVAVITWSGGSTYYADSVKGRFTISRDNAKNTVYLQMNSLKPEDTAVYYCNAEAPRYTYGRMDYWGQGTQVTVSS,low polyreactivity
6,QVQLVESGGGLVQAGGSLRLSCAASGFTFTPNAMGSYRQAPGKERELVAAITSGGNTYADSVKGRFTISRDNAKNTVYLQMNSLKPEDTAVYYCAKGEGYWYIARYLPVGYGYWGQGTQVTVSS,low polyreactivity
7,QVQLVESGGGLVQAGGSLRLSCAASGFTFTPNAMGWYRQAPGKERELVAITWSDGNTYYADSVKGRFTISRDNAKNTVYLQMNSLKPEDTAVYYCNADSTQGAWWPWLNDYWGQGTQVTVSS,high polyreactivity
8,QVQLVESGGGLVQAGGSLRLSCAASGFTFTQYGMGWYRQAPGKEREFVATIRFSGDNTYYADSVKGRFTISRDNAKNTVYLQMNSLKPEDTAVYYCNADNRAFFVYPVSKRYDSWGQGTQVTVSS,low polyreactivity
9,QVQLVESGGGLVQAGGSLRLSCAASGFTFTRNAMGWYRQAPGKERELVAAISSSAGSTSYADSVKGRFTISRDNAKNTVYLQMNSLKPEDTAVYYCAKSYRSSRRYNYWGQGTQVTVSS,high polyreactivity
10,QVQLVESGGGLVQAGGSLRLSCAASGFTFTRYAMGWYRPAPGKERELVAAISWNGGSMYYADSVKGRFTISRDNAKNTVYLQMNSLKPEDTAVYYCAVRFKYQWSKFGYWGQGTQVTVSS,high polyreactivity
11,QVQLVESGGGLVQAGGSLRLSCAASGFTFTRYTMGWYRQAPGKERELVAAITSGGRTNYADSVKGRFTISRDNAKNTVYLQMNSLKPEDTAVYYCAARYVYYWAYGNEYWGHGTQVTVSS,high polyreactivity
12,QVQLVESGGGLVQAGGSLRLSCAASGFTFTSNVMGWYREAPGKEWELVADISASDGRTYYADSVKGRFTISRDNAKNTVYLQMNSLKREDTAVYYCNVSSRRLRGLDYWGQGTQVTVSS,low polyreactivity
13,QVQLVESGGGLVQAGGSLRLSCAASGFTFTSYAMGWYRQAPGKEREFVAAIRRSGSGTYYADSVKGRFTISRDNAKNNVYLQMNSLKPEDTAVYYCAFVPPRLYYHYDYWGQGTQVTVSS,high polyreactivity
14,QVQLVESGGGLVQAGGSLRLSCAASGFTFTSYAMGWYRQAPGKERELVAAITVTGGRTYYADSVKGRFTISRDNAKNTVYLQMNSLKPEDTAVYYCATVFSLSSPYWKHYYWGQGTQVTVSS,high polyreactivity
15,QVQLVESGGGLVQAGGSLRLSCAASGFTFTTYDMGWYRQAPGKERELVAAINSGGSTNYADSVKGRFTISRDNAKNTVYLQMNSLKPEDTAVYYCAAEFYWYYNNFFEDRYYWGQGTQVTVSS,low polyreactivity
16,QVQLVESGGGLVQAGGSLRLSCAASGFTFTYYAMGSYRQAPGKERELVAAITSRGGTTYYADSVKGRFTISRDNAKNTVYLQMNSLKPEDTAVYYCNARHSYWTGRRVTDDYDYWGQGTQVTVSS,high polyreactivity
17,QVQLVESGGGLVQAGGSLRLSCAASGFTFTYYAMGWYRQAPGKERELVAAITRRGGRTYYADSVKGRFTISRDNAKNTVYLQMNSLKPEDTAVYYCNADEYGGSTGRKGRYNYWGQGTQVTVSS,low polyreactivity
18,QVQLVESGGGLVQAGGSLRLSCAASGFTFTYYAMGWYRQAPGKERELVAVISSAGSTYNADSVKGRFTISRDNAKNTVYLQMNSLKPEDTAVYYCNAVGRYYSSGRYGHWGQGTQVTVSS,high polyreactivity
19,QVQLVESGGGLVQAGGSLRLSCAASGFTFTYYDMGWYRQAPGKERELDAAISWSGDYTYYADSVKGRFTISRDNAKNTVYLQMNSLKPEDTAVYYCAALWDVRGYWSSGGYYWGQGTQVTVSS,high polyreactivity
20,QVQLVESGGGLVQAGGSLRLSCAASGFTFTYYDMGWYRQAPGKERELVAAISRSGGRTYYADSVKGRFTISRDNAKNTVYLQMNSLKPEDTAVYYCAARRVDTRVHVRYRYYYWGQGTQVTVSS,high polyreactivity
21,QVQLVESGGGLVQAGGSLRLSCAASGFTFTYYVMGWYRQAPGKERELVAAITSSGGRTYYADSVKGRFTISRDNAKNTVYLQMNSLKPEDTAVYYCNKGPLPGYDYWGQGTQVTVSS,high polyreactivity
